According to the RNAGym collection of RNA variant scans (doi:10.1073/pnas.2313332121):
Variants at the floor of the assay were thinned out.

B1: TPR 5TU (parent)
chain: GGAUCUUCUCGAUCUAACAAAAAAGACAAAUCUGCCACAAAGCUUGAGAGCAUCUUCGGAUGCAGAGGCGGCAGCCUUCGGUGGCGCGAUAGCGCCAACGUUCUCAACUAUGACACGCAAAACGCGUGCUCCGUUGAAUGGAGUUUAUCAUG

Variants of: B1
Assay: polymerase ribozyme fitness, log enrichment relative to wild type (log ratio); higher = more active; in vitro selection for triplet polymerase activity
In short: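 For each subunit of a heterodimeric triplet polymerase ribozyme, a mutant library was built by PCR and transcribed, then taken through a single in vitro selection round in triplicate. Selection involved annealing to a biotinylated primer, the partner subunit and triplets, incubation frozen at −7 °C, gel excision of extended constructs, capture on streptavidin beads and RT-PCR. Genotypes were retained after Illumina sequencing of inputs and outputs only with ≥10 input reads and ≥1 read in each output. Fitness is defined as the logarithm of a genotype's enrichment relative to wild-type enrichment, using inverse-variance-weighted averages across replicates, with the logarithm taken to base 2.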

GGAUCUUCUCGAUCUAACAAAAAAGACAAAUCUGCCACUAAGCUUGAGAGCAUCGUCUGAUGCAGAGGCGGCAGCCUGCGGUGGUGCGACAGCGCCAACGUUCUAAACUAUGACACGCAAAACGCGUGCUCCGUUUAAUGGCGUUUAUCAUG [A39U U55G G58U U78G C85U U90C C105A G136U A142C] and GGAUCUUCUCGAUCUAACAAAAAAGACAAAUCUGCCACACAGCUUGAGAGCAUCUUCGGAUGCAGAGGCGGCAGCCUUCGGUGGGGUGAUAGUGCCAACGUUCUCAACUAUGACACGCAAAACGCGUGCUCCGUUGAAUGGAGUUUACCAUG [A40C C85G C87U C93U U148C] cannot be ordered by “polymerase ribozyme fitness (log ratio)” value: no more than -4.2 for the first, no more than -4.2 for the second.

Compared with GGAUCUUCUCGAUCUAACAAAAAAGACAAAUCUGCCACACAGCUUGAGAGCAUCUUUGGAUGCAGAGGCGGCAGCCUUCGGUGGCGCGAUAGCGCCAACGUUCUCAACUAUGACACGCAAAACGCGUGCUCCGUUGAAUGGAGUUUAUCAUG [A40C C57U], GGAUCUUCUCGAUCUAACAAAAAAGACAAAUCUGCCACACAGCUUGAGGGCAUCAUCGGAUGCAGAGGCGGCAGCCUUCAGUGGUGCGAUAGCGCCAACGUUCUCAACUAUGACACGCAAAACGCGUGCUCCGUUGAAUCGAGUUUAUCAUG [A40C A49G U55A G80A C85U G140C] is lower in “polymerase ribozyme fitness (log ratio)” value: 0.521 for the first, no more than -4.2 for the second.

Going from GGAUCUUCUCGAUCUAACAAAAAAGACAAAUCUGCCACUAAGCUUGAGAGCAACUUCGGAUGCAGAGGCGGCAGCCUUCGGUGGCGCGAUAGCGCCAACGUUCUCAACUAUGACACGCAAAACGCGUGCUCCGUUGAAUGGAGUUUAUCAUG [A39U U53A] to GGAUCUUCUCGAUCUAACAAAAAAGACAAAUCUGCCACACAGCUUGAGAGCAUCUUCGGUUGCAGAGGCAGCAGCCUUCGGUGGCGCGAUAGCGCCAACGUUAUCAGCUAUGACACGCAAAACGCGUGCUCCGUUGAAUGGAGUUUAUCAUG [A40C A60U G70A C103A A107G], the “polymerase ribozyme fitness (log ratio)” value falls from -2.91 to no more than -4.2.

Compared with GGAUCUUCUCGAUCUAACAAAAAAGACAAAUCUGCCACACAGCUUGAGUGCUUCUUCGGGUGCAGAGGCGGCAGCCUUCGGUUGCGCGAUAGCGCCAACGUUCUCAACUAUGACACGCAAAACGCGUGCUCCGUUGAAUGGAGUUUAUCAUG [A40C A49U A52U A60G G83U], GGAUCUUCUCGAUCUAACAAAAAAGACAAAUCUGCCACACAGCUUGAGAGCAUCUUCGGAUGCAGAGGCGGCAGCCUUCGGUGGCGCGAUAGAGCCAACGUUCUCAACUAUGACACGCAAAACGCGUGCUCCGUUGAAUGGAAUUUAUCAUG [A40C C93A G143A] is higher in “polymerase ribozyme fitness (log ratio)” value: no more than -4.2 for the first, -3.22 for the second.

GGAUCUUCUCGAUCUAACAAAAAAGACAAAUCUGCCACUAAGCUUGAGAGCAUCUUCGGAGGCAGAGGCGGCAGCCUUCGGUGGUGCGAUAGUGCCAACGUUCUCAACUAUGACACGCAAAACGCGUGCUCCGAUGAAUGGAGUUUAUCAUG [A39U U61G C85U C93U U134A] and GGAUCUUCUCGAUCUAACAAAAAAGACAAAUCUGCCACACAGCUUGAGAGCAUCUUCGGAUGCAGAGGCGGCAGCCUUCGGUGGAGCGAUAGCGCCAACGUGCUCAACUAUGACACGCAAAACGCGUGCUCCGUUGAAUGGAAUUUAUCAUG [A40C C85A U102G G143A] cannot be ordered by “polymerase ribozyme fitness (log ratio)” value: no more than -4.2 for the first, no more than -4.2 for the second.

Going from GGAUCUUCUCGAUCUAACAAAAAAGACAAAUCUGCCACACAGCUUGAGAGCAUCUUCGGAUGCAGAGGCGGCAGCCUUCGGUGGCGCGAUAGCGCCAACGUUCUCAACUAUGACACGCAAAACGCGUGCUCCGUUGGAUGGAGUUUAUCAUG [A40C A137G] to GGAUCUUCUCGAUCUAACAAAAAAGACAAAUCUGCCACUAAGCUUGAGAGCAUCUUCGGAUGCAGAGGCGGCAGCCUUCGGUGGCGCGAUAGCGCCAACGUUCUCAACUAUGACACGCAAAACGCGUGCUCCGUUGAAUGGAGCUUAUCAUG [A39U U144C], the “polymerase ribozyme fitness (log ratio)” value falls from -1.42 to -2.52.

Going from GGAUCUUCUCGAUCUAACAAAAAAGACAAAUCUGCCACUAAGCUUGAGAGCAUCUUCGGAUGCAGAGGCGGCAGCCUUCGGAGGCGCGAUAGCGCCAACGUUCUCGACUAUGACACGCAAAACGCGUGCUCCGUUGAAUGGAGUUUAUCAUG [A39U U82A A106G] to GGAUCUUCUCGAUCUAACAAAAAAGACAAAUCUGCCACACAGCUUGAGAGCAUCUUCGGAUGCAGAGGCGGCAGCCUUCGGUGGCGCGAUAGCGCCAACGUUCUCAACUAUGACACGCAAAACGCGUGCUCCGUUGAAUGGAGUUUAUCAUG [A40C], the “polymerase ribozyme fitness (log ratio)” value rises from -1.88 to 0.603.

First: GGAUCUUCUCGAUCUAACAAAAAAGACAAAUCUGCCACACAGCUUGAGAGCAUCUUCGGAUGCAGAGGCGGCAGCCUUCGGUGGGGCGAUAGCGCCAACGUUCUCGACUAUGACACCCAAAACGCGUGCUCCGUUGAAUGGAGUUUAUCAUG [A40C C85G A106G G117C]
Second: GGAUCUUCUCGAUCUAACAAAAAAGACAAAUCUGCCACACAGCUUGAGAGCAUCUUCGGAUGCAGAGGCGGCAGCUUUCGGUGGCGCGAUAGCGCCAACGUUCUCAACUAUGACACGCAAAACGCGUGCUCCGUUGAAUGGAGUUUAUCAUG [A40C C76U]
The “polymerase ribozyme fitness (log ratio)” value of the first is lower: -1.29 for the first, 0.0931 for the second.

First: GGAUCUUCUCGAUCUAACAAAAAAGACAAAUCUGCCACUAAGCUUGAGAGCAACUUCGGAUGCAGAGGCGGCAGCCUUCGGUGGCUCGAUAGCGCCAACGUUCUCAACUAUGACACGCAAAACGCGUGCUCCGUUGAAUGGAGUUUAUCAUG [A39U U53A G86U]
Second: GGAUCUUCUCGAUCUAACAAAAAAGACAAAUCUGCCACUAAGCUUGAGAGCAACUCCGGCAGCAGAGGCGGCAGCCUUCGGUGGCUCGGUAGCGCCAACGUUCUCAACUAUGACACGCAAAACGCGUGCUCCGUUGAAUGGAGUUUAUCAUG [A39U U53A U56C A60C U61A G86U A89G]
The “polymerase ribozyme fitness (log ratio)” value of the first is higher: -3.7 for the first, -4.17 for the second.

In the case of GGAUCUUCUCGAUCUAACAAAAAAGACAAAUCUGCCACUAAGCUUGAGAGCAUCUUCGGAUGCAGAGGCGGCAGCCUUCGGUGGCGCGAUAGCGCCAACGUCCUCAACUAUGACACGCAAAACGCGUGCUCCGUUGAAUGGAGUUUAUCAUG [A39U U102C], the “polymerase ribozyme fitness (log ratio)” value is reported as -4.01.
